Measurements reported in the supplement of paper PMC9170038.

Tested on: MS2 coat protein
Assay: apparent KD of MS2 coat protein; designed switch direction (-1 OFF switch, 1 ON switch): -1; higher = weaker reporter binding
Method in brief: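 Each step of the titration lasted 0.8–1.5 h at the lowest concentration and 10–20 min at the highest. The protein, SNAP-549-labelled MS2 coat protein, went from 0.7 or 1.5 nM doubling to 3 µM over RNA switches transcribed on Illumina chips by stalled E. coli RNA polymerase. Normalised cluster fluorescence was curve-fitted, and the per-design median over clusters is given as apparent KD.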

[1] = Eterna round: R95, input ligand: FMN 200 uM
[2] = Eterna round: R95, input ligand: microRNA oligo, concentration not stated
[3] = Eterna round: R95, input ligand: none
[4] = input ligand: microRNA oligo, concentration not stated

Sequence | apparent KD of MS2 coat protein [1] | apparent KD of MS2 coat protein [2] | apparent KD of MS2 coat protein [3] | apparent KD of MS2 coat protein (input ligand: FMN 200 uM) | apparent KD of MS2 coat protein (input ligand: none) | apparent KD of MS2 coat protein [4]
UUUUACUCAGGAUAUAUGAUGUGAAACAUGAGGAUCACCCAUGUAAUAUUAUGGAUGUAAAUAGAAGGGAGAUUUU [Mat - Exclusion 5 - JL mod - D17] (puzzle: Exclusion 5) | 58.8 nM | 62.3 nM | 78.4 nM |  |  | 
UUUUAGAGAGGAUAUAUAAAGUGAAACAUGAGGAUCACCCAUGUAAUUUUAUGGAUGUAAAUAGAAGGCUCAUUUU [Mat - Exclusion 5 - JL mod - D2] (puzzle: Exclusion 5) | 27.8 nM | 34.2 nM | 34.7 nM |  |  | 
UUUUAGAGAGGAUAUAUAUUUUAAAACAUGAGGAUCACCCAUGUAAUUUUAUGGGAGUAAAUAGAAGGCUCAUUUA [JMFs Solution 3] (puzzle: Exclusion 5) | 48.7 nM | 51 nM | 56.3 nM |  |  | 
UUUUAGAGAGGAUAUAUUAUGUGAAACAUGAGGAUCACCCAUGUAAUAUGAUGGAUGUAAAUAGAAGGCUCAUUUA [JL-ex5-3.06] (puzzle: Exclusion 5) | 34.6 nM | 48.3 nM | 58 nM |  |  | 
UUUUAGGAAGGAUAUACAUUUUUUUUAUUAUCCUCAUUAUUACAUGAGGAUCACCCAUGUAGAAGGUCCAUUUU [My Design] (puzzle: Exclusion 2) |  | 175 nM |  |  |  | 
UUUUAGUAAGGAUAUGUGGUACGCUUAAAAUAGGAAGGGACACAGAAGGUACAUGAGGAUCACCCAUGUGAACC [Eternabot (L1) Solution 49] (Eterna round: R97, puzzle: Exclusion 4) |  |  |  | 140 nM | 61.9 nM | 
UUUUAGUCAGGAUAUACAUGAGGAUCACCCAUGUAAAAUUUUAAUUUAAUUUGAAGGUGUAGAAGGGACAUUUU [Ex3 #40] (Eterna round: R97, puzzle: Exclusion 3) |  |  |  | 25.9 nM | 27.8 nM | 
UUUUAGUCAGGAUAUACAUGAGGAUCACCCAUGUAAAAUUUUAAUUUAAUUUUAAGGUGUAGAAGGGACAUUUA [Ex3 #6] (Eterna round: R97, puzzle: Exclusion 3) |  |  |  | 28.4 nM | 33.6 nM | 
UUUUCACAUGAGGAUCACCCAUGUGAGGAUAUGGUUUCGCUGGCCGUAGCCAGUGGAACCAGAAGGCGCAUGAU [Mat - Exclusion 1 - JL Mod - D6] (Eterna round: R97, puzzle: Exclusion 1) |  |  |  | 35.3 nM | 30.2 nM | 
UUUUCGUGAGGAUAUCAGUAGUAAAUAAAUAAAAUUACUACUGAGAAGGCACAUGAGGAUCACCCAUGUUCCUU [salish99_ex3_r3_094] (puzzle: Exclusion 4) |  | 13.6 nM |  |  |  | 
UUUUCUUUUGUGAGGAUAUACUUCUUUUUCUUUUUGUAGAAGGCACAUGAGGAUCACCCAUGUUUUCUUUUCUC [JR_BME4_Sub028] (puzzle: Brourd's mod of Exclusion 4) |  | 13.7 nM |  |  |  | 
UUUUGAAAGUGAGGAUAUGACAUGAGGAUCACCCAUGUAAAGGGAGUUGACUAUAUAGAAAGAUAUCAGAAGGCACAAAUGUUU [JR_ExcNG2_Sub002] (Eterna round: R96, puzzle: Exclusion NG 2) |  |  |  | 839 nM | 321 nM | 237 nM
UUUUGACAAGCGAGAUCCUACAUGAGGAUCACCCAUGUAGACCAUGGUUUCCAUGGUCUUUUUGCUCGUCUUGUGUG [jl TITIN mod 5] (Eterna round: R97, puzzle: Sensor, turn-off variant 1) |  |  |  | 23.2 nM | 23.4 nM | 
UUUUGACAUGAGGAUCACCCAUGUUAGGAUAUCUUAAGGGAUGGAACAGGGUCGGAACAGAGAAGGAGCGUGGG [EX1 B.26] (Eterna round: R97, puzzle: Exclusion 1) |  |  |  | 82.4 nM | 47.9 nM | 
UUUUGCAAGCAAAUUGUCAACAUGAGGAUCACCCAUGUGGAAGCCUUGGAGGGUGGGACCGUAAGUAGAGCUCGUUU [Eternabot (L2) Solution 34] (Eterna round: R97, puzzle: Sensor, turn-off variant 1) |  |  |  | 38.1 nM | 39.2 nM | 
UUUUGCACGCUGCGGUCCUACAUGAGGAUCACCCAUGUGGUCUGGUGGCGUGGGUCGCCGGACUUGGCUCGUCUUGU [salish99_S_TOV1_R5_036] (Eterna round: R97, puzzle: Sensor, turn-off variant 1) |  |  |  | 19 nM | 19.1 nM | 
UUUUGGCAGGCUAUUAUUAACAUGAGGAUCACCCAUGUGCAUCCAAAAUUACUUUUAGAUCUUGCUCGUCUUAUAUA [JR_STOV1_Sub086] (Eterna round: R97, puzzle: Sensor, turn-off variant 1) |  |  |  | 379 nM | 684 nM | 

Sequence | apparent KD of MS2 coat protein [1] | apparent KD of MS2 coat protein [2] | apparent KD of MS2 coat protein [3] | apparent KD of MS2 coat protein (input ligand: FMN 200 uM) | apparent KD of MS2 coat protein (input ligand: none) | apparent KD of MS2 coat protein [4]
UUUUUAAAUGAAGGAUAUACUUAACAUGAGGAUCACCCAUGUGGUGUUGUGAGUGAGUGAGUUUAGUAGAAGGUCAAUGAUUUU [JMF's solution 65] (Eterna round: R96, puzzle: Exclusion NG 2) |  |  |  | 1250 nM | 211 nM | 196 nM
UUUUUACAUGAGGAUCACCCAUGUCAGGAUAUCCUUAUAUUUUAUUAUUUUAUUUUUUGGAGAAGGGACUAUUA [My solution] (Eterna round: R96, puzzle: Exclusion 1) |  |  |  | 362 nM | 322 nM | 282 nM
UUUUUACAUGAGGAUCACCCAUGUCAGGAUAUCCUUAUAUUUUAUUAUUUUAUUUUUUGGAGAAGGGACUAUUA [My solution] (puzzle: Exclusion 1) |  | 297 nM |  |  |  | 
UUUUUACAUGAGGAUCACCCAUGUCAGGAUAUUCUUAUAUUUUAUUAUUUUAUUUUUUGAAGAAGGGACUAUUA [My solution] (puzzle: Exclusion 1) |  | 99.4 nM |  |  |  | 
UUUUUACAUGAGGAUCACCCAUGUGAGGAUAUGGAGCGCGACCGCGCGGUCGCGUACACCAGAAGGCGCAUGAU [1st #77] (Eterna round: R97, puzzle: Exclusion 1) |  |  |  | 243 nM | 51.7 nM | 
UUUUUAGAUGAAGGAUAUACUUAACAUGAGGAUCACCCAUGUGGUGUUGUGAGUGAGUGAGUUUAGUAGAAGGUCAAGUAUUUU [JMF's solution 45] (Eterna round: R96, puzzle: Exclusion NG 2) |  |  |  | 769 nM | 404 nM | 377 nM
UUUUUAUAUGAAGGAUAUACUUAACAUGAGGAUCACCCAUGUGGUGUUGUGAGUGAGUGAGUUUAGUAGAAGGUCAAGUCUUUU [JMF's solution 36] (Eterna round: R96, puzzle: Exclusion NG 2) |  |  |  | 555 nM | 361 nM | 383 nM
UUUUUAUAUGAAGGAUAUACUUAACAUGAGGAUCACCCAUGUGGUGUUGUGAGUGAGUGAGUUUAGUAGAAGGUCAAUAAUUUU [JMF's solution 9] (Eterna round: R96, puzzle: Exclusion NG 2) |  |  |  | 996 nM | 286 nM | 180 nM
UUUUUAUAUGAAGGAUAUACUUAACAUGAGGAUCACCCAUGUGGUGUUGUGAGUGAGUGAGUUUAGUAGAAGGUCAAUGAUUAU [JMF's solution 59] (Eterna round: R96, puzzle: Exclusion NG 2) |  |  |  | 991 nM | 321 nM | 205 nM
UUUUUAUAUGAAGGAUAUACUUAACAUGAGGAUCACCCAUGUGGUGUUGUGAGUGAGUGAGUUUAGUAGAAGGUCAAUGAUUCU [JMF's solution 61] (Eterna round: R96, puzzle: Exclusion NG 2) |  |  |  | 864 nM | 419 nM | 299 nM
UUUUUAUAUGAAGGAUAUACUUAACAUGAGGAUCACCCAUGUGGUGUUGUGAGUGAGUGAGUUUAGUAGAAGGUCAAUUCUCUU [JMF's solution 81] (Eterna round: R96, puzzle: Exclusion NG 2) |  |  |  | 989 nM | 492 nM | 156 nM
UUUUUAUAUGAAGGAUAUACUUAACAUGAGGAUCACCCAUGUGGUGUUGUGAGUGAGUGAGUUUAGUAGAAGGUCAAUUCUUUA [JMF's solution 83] (Eterna round: R96, puzzle: Exclusion NG 2) |  |  |  | 866 nM | 463 nM | 443 nM
UUUUUAUCUGAAGGAUAUACUUAACAUGAGGAUCACCCAUGUGGUGUUGUGAGUGAGUGAGUUUAGUAGAAGGUCAAUUAUUUU [JMF's solution 19] (Eterna round: R96, puzzle: Exclusion NG 2) |  |  |  | 1310 nM | 380 nM | 392 nM
UUUUUAUUUGAAGGAUAUACUUAACAUGAGGAUCACCCAUGUGGUGUUGUGAGUGAGUGAGUUUAGUAGAAGGUCAAUUCUUUU [JMF's solution 85] (Eterna round: R96, puzzle: Exclusion NG 2) |  |  |  |  |  | 391 nM
UUUUUCAGGCCAGAUCCUCACAUGAGGAUCACCCAUGUGCUCGUCUGUUUUCGCGCUAGCUUUUUUUUGGUAGGGCU [Level Boss var2-17] (puzzle: Sensor v3, turn-off variant 1) | 329 nM | 29.7 nM | 325 nM |  |  | 
UUUUUCAGGCCAGAUCCUCACAUGAGGAUCACCCAUGUGCUCGUCUGUUUUCGCUCUUUCUUUUUUUUGUUUGUGCU [Level Boss var2-19] (puzzle: Sensor v3, turn-off variant 1) | 181 nM | 27.5 nM | 312 nM |  |  | 
UUUUUCUCAGGAUAUACAUGAGGAUCACCCAUGUAUAUUAAUGGUAAUACAUGGGAAUGUAGAAGGGAGCUCAU [Omei Ex3 Pseudoloop 15] (Eterna round: R97, puzzle: Exclusion 3) |  |  |  | 112 nM | 122 nM | 
